Measurements published in patent US7960513B2, “Antibody against a human ADAM protease” (Monash University, priority 2004, dated 2011).

Molecular target: T1, EphA3 (Homo sapiens, UniProt P29320)
T1 construct: expressed in transfected cells
T1 sequence (P29320 21-983): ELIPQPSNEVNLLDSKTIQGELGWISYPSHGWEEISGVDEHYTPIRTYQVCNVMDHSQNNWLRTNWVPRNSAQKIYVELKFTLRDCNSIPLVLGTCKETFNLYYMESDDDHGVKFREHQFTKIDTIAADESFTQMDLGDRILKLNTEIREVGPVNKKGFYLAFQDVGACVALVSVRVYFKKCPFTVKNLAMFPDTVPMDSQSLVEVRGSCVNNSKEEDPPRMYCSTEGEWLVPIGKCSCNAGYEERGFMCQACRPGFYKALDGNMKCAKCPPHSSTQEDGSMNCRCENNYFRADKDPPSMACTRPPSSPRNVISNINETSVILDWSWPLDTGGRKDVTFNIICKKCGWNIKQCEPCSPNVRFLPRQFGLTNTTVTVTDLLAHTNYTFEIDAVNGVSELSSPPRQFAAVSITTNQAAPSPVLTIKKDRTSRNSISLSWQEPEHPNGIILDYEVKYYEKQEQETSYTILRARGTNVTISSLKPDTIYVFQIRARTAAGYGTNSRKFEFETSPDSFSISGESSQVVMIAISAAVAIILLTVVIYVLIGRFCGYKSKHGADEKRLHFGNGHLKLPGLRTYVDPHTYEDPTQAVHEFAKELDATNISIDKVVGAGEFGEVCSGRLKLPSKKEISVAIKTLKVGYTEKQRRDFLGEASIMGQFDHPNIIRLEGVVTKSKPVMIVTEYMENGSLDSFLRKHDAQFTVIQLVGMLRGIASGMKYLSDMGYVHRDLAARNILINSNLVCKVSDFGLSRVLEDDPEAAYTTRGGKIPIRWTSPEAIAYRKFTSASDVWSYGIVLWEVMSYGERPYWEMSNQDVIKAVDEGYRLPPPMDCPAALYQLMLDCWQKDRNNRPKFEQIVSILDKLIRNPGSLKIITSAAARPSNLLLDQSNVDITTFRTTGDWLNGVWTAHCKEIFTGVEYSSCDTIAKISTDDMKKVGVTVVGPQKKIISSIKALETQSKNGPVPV
Experiment: Co-immunoprecipitation from transfected cells, Western blot
Format: cell-based
Conditions: EphA3/293 cells, EEE-A substituted construct
Description: FIG. 1. EphA3-ADAM10 association, ephrin-A5 cleavage and ephrin internalisation. • A. Association of ADAM10 with EphA3 in LiBr melanoma cells and parental or stably transfected EphA3/HEK293 cells. The cells were treated with clustered ephrin-Fc (A5 or A2) or were left untreated (−) prior to lysis. Anti-EphA3 immunoprecipitates from lysates were analysed by Western blot for endogenous ADAM10 (“p” and “m” indicate the pro (unprocessed) and mature (processed) forms of ADAM10). Aliquots from immunoprecipitates were blotted for EphA3 levels to indicate loading (lower panel). […] EphA3/HEK293 or ephrin-A5/HEK293 cells were transfected to express HA-tagged ADAM10ΔPM. Western Blots of anti-HA immuno-precipitates were analysed with antibodies against ephrin-A5 and EphA3, parallel control samples with anti-ADAM10 antibodies. Lysates of ephrin-A5/HEK 293 cells were also extracted with Protein-A Sepharose-bound EphA3 Fc and analysed with anti-ephrin-A5 antibodies. • C. […] Pooled cell lysates and supernatants were pre-cleared with excess Protein-A Sepharose, cleaved ephrin-A5 was extracted using EphA3-Fc coupled to Protein-A Sepharose and analysed by anti-ephrin-A5 immuno-blot. Recombinant, monomeric, single-chain ephrin-A5 (Himanen et al., 2004, Nat Neurosci. 7 501-9; ephrin std) was analysed in parallel. • D. Ephrin-A5 cleavage and internalisation are inhibited by dominant-negative ADAM10. […]

ephrin-independent constitutive association with EphA3: remained unchanged
B1: ADAM10Δpro: cell-surface ADAM10Δpro incorporating the EEE-A amino acid substitutions (protein)
chain: SGQPICGNGMVEQGEECDCGYSDQCKDDCCFDANQPEGKKCKLKPGKQCSPSQGPCCTAQCAFKSKSEKCRDDSDCAKEGICNGFTALCPASDPKPNFTDCNRHTQVCINGQCAGSICAKYDLAACTCASSDGKDDKELCHVCCMKKMAPSTCASTGSLQWSKQFSGRTITLQPGSPCNDFRGYCDVFMRCRLVDADGPLARLKKAIFSPQLYENIAEWIVAHWWAVLLMGIALIMLMAGFIKICSVHTPSSNPKLPPPKPLPGTLKRRRPPQPIQQPPRQRPRESYQMGHMRR
modifications: left off: small tags and cut ends
notes: cell-surface ADAM10Δpro incorporating the EEE-A amino acid substitutions
